According to the supplement of paper PMC12455559:

Assay: purified protein yield per well (BCA); higher = higher soluble expression
Summary of the method: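 Candidate enzymes were produced in E. coli C41(DE3) grown in 2 mL autoinduction cultures containing 100 µg/mL kanamycin, first at 37 °C for 2 h and then at 18 °C for 40 h. After cell lysis, protein was captured on Ni-charged magnetic beads and freed by SUMO protease cleavage on an OT-2 robot. Purified protein yield per well was read with the Pierce Rapid Gold BCA kit. Values under 25 ug (0.1 mg/mL) fall below the detection threshold.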

In the case of “SPVLALVAGPALANPYQRGPDPTDASITAETGPFKTASVVVPSNTDPGFAGGTIYYPTDTSQGTFAPIVVTPGFVSPQWAISWYGPRLASQGFVVMTIDTLGLFDVVDQRGKEMLAALDYLTNRSAVKDRIDPTRPGLMGHSMGGGGVIRAAAERPGIKAVVPLAPWDPNSSYAWNVKADTLVVGGESDMIAPVAANAEPIYKDLRSAPEKAYLELSGADHVFAFNLPNTTIAKYAIAWMKRFLDDDVRYDRFLCPAPAPGGAIKQYQDTCPNG [TEP158]”, the “purified protein yield per well” value is reported as < 25 µg.
In the case of “CGTTTSTLTTPAVTPQTLSGAATNPYERGPAPTTALLEAARGPYATASTTVPRSSVSDFGGATIYYPTSTADGTFGGVAISPGYTGTQASVAWLGPRLASHGFVVIVIDTLSRYDYPSSRGDQLRAALRYLTTSSAVRTRVDATRLAVMGHSMGGGGALEAAKDNPALKAAIPLTPWNTDKSWPELTTPTLIFGAQNDSVAPVSSHAIPFYTSLASTLPKAYLELRGASHGAPTSTNTTIAKYAVAWLKRFEDADRRYDPFLCPTPAVSTLLSDARSTCPFN [DP069]”, the “purified protein yield per well” value is reported as < 25 µg.
In the case of “MRSSVTQVPACKGAETSEARPRTGSRPVGLRAVVVAVVAGLIAALVSAQPVSARPAPARPGAAQDNPYERGPDPTVGSVAAQRGTFATAEMNVSPGNGFNGGKIYYPTDTSQGTWGAVAAVPGFTARWAAEGAWMGHWLASFGFVVIGIDTNSPNDYDTARGTQLLAALDYLTQKSPVRDRVDPDRLGVIGHSMGGGGAISAAVRRPSLKAAVPLAPFSPSQDLSTLRVPTMIMGARDDGTVTPSYLDGLYARTPAATQSAFIELTSGGHGFPTWGNSHVTRRMIPWLKIFIDNDTRYTQFLCPSPADRSNISRWQTKCPYVPPGGTTPPPSGGQVVGAGSARCLDVPSQTNGTQVRLWDCLDRAGQKWTRTEAAELRVHGGKCLDAEASGTSPGTRVVIWDCHGGQNQRWNIGTNGTITSTRSGLCLDAYNSGTANGTQVVLWNCNGGANQRWTFR [DP042]”, the “purified protein yield per well” value is reported as < 25 µg.
With “ATTSFRRGPDPSAASIRAANGPFAIAKTTVARQAGFGGGDIYAPTDTSRGTFGAVAIAPGFTATRSSLAWLAPRIASQGFVVFNIDTLTTSDQPAQRGRELLAALDFLTGSSTARAKIDRTRLAVMGHSMGGGGTLEAAKARPSLKAAVPLTPWDLTKNFATVKVPTMIIGAQSDTIAPPSRFSDQFFASLPAATNKGYLELAGASHFAPNIPNPTIASTSIAWLKRFVDGDTRFEQFLCPGPSSNGISEYQTNCPHKA [ESM129]” the “purified protein yield per well” value was < 25 µg.
In the case of “ADNPYERGPAPTNSSIEASRGPFAVSETSVSSLVSGFGGGTIYYPTSTSAGTFGAVAISPGYTGTQSTMAWLGPRLASQGFVIFTIDTNSVYDQPDSRASQLLAALDYLTQQSTVRTRIDSSRLGVMGHSMGGGGTLRAASQRPSLQAAIPLTGWHTTKNWSSVRVPTLVVGAESDSVAPVSSHSEPFYTSLPSTLDKAYLELNNASHFAPNSSNTTIAKYSISWLKRFIDNDTRYEQFLCPAPGRSTLIEEYRDTCPHS [TEP028]”, the “purified protein yield per well” value is reported as < 25 µg.
In the case of “PWTSYSAGATVYYPRTATAPFSAIVFMQPYTGTQAMNYAWGPWFASHGIVYVNYDSTTTLDTVDSRATQQMNAINALKNENNRSASPLYRKLDTSRIGVMGWSMGGGASWINSANSSIKTAMSLAGHSLTAVSIYKSGRYTKCPTMIFSGLLDTTYLGGMGQSEGVYRNIPSGIAKIHYEVRSAGHMAWGSPTSASSNVAKIALAFQKTFLDGDTRWAAYLTQPSDASTWNTASLPSTGGTTPDYPWWYWWR [TEP072]”, the “purified protein yield per well” value is reported as < 25 µg.
With “QNPYERGPAPTTSSLEASRGPFSTSSFTVSRPSGYGAGTVYYPTNAGGTVGAIAIVPGFTARQSSINWWGPRLASHGFVVITIDTNSTLDQPASRSRQQLAALDQVATLARTSSSPIYNKVDTTRMGVMGWSMGGGGSLISAQNRPSLKAAAPQAPWNGSTSFGSVTVPTLIFACENDSIAPVGSHASPMYNSMTRNPKEFIEIDGGSHSCANSGNSNQALIGKKGVAWMKRFMDNDTRYTSFACANPNSTRVSDFRVARCS [ESM066]” the “purified protein yield per well” value was < 25 µg.
In the case of “QVVVFEETFSTGLGKFTAAGSVVTSSGAARLDGCYGCTDGSITSTAISTVDFTGLRLSFDRVTSGLDSGEAGIAEFSTNGSTYTAVESIRTASGRVTFNLPTSAENQSGLRLRFRINASLSSETYTVDNIRLEGTSGSGGGTTNPFEKGPDPTKTMLEASTGPFTYTTTTVSSTTASGYRQGTIYHPTNVTGPFAAVAVVPGYLASQSSINWWGPRLASHGFVVITIDTNSTSDQPPSRATQLMAALNQLKTFSNTSSHPIYRKVDPNRLGVMGWSMGGGGTLIAARDNPTLKAAIPFAPWNSSTNFSTVSVPTLIIACESDSTAPVNSHASPFYNSLPSTTKKAYLEMNNGSHSCANSGNSNAGLIGKYGVSWMKRFMDNDTRFSPYLCGAPHQADLSLTAIDEYRENCPY [TEP066]”, the “purified protein yield per well” value is reported as < 25 µg.
For “WTPDPEPPGPVPEPCNTDCSQGPYPTTGSVEANMGPFSISSVSVPWTVSGFGGGTIYYPSSGTTGSLGAIALIPGFLGPEWTISAWGERLASHGFIVITVATNAVTDQPDSRATQLSRALDHVIIESGSTSSPIYGMVDPNRLGAMGISMGGGGTLKLTSDRTLSAAVPMVPWYLGFNDFESIDTPTLIIGCENDTIAPVALHSIPFYNAISDDVDKAYLEMNNGSHGCVAGLTNVDILGKYAVSWMKRFIDNDQRYDQFLCGPNHTAPFSVSDYRDNCDY [DP096]”, the “purified protein yield per well” value was < 25 µg.
With “WLTSAASPVRARVDANRLGVGGHSMGGGGAIEAASEMPSLKASIGFEPWNGIGSWPGVRVPTMIQGAQNDNIAPVAQHSEPFYNSMTNAPEKAYAEFTGASHFFSGQAGPATTRLSVSWYKRFLDNDTRYDQFLCPGPRSPEVVEYRNTCPLTTPGGGGGTTTTTGPGTTTTTRPTTTTTAPPAQCQWWEWWCWLGWG [TEP046]” the “purified protein yield per well” value was < 25 µg.
With “MVSGTATATPAATAAHPVRAAANPYERGPAPTVASVEAPLGPYAVSRITVARSSVSGFGGGTVHYPTSTADGTFGAVAVSPGFTGTQSSIAWYGPRLASQGFVVLTIDTLTGLDQPASRGRQLLAALDYLTGESAVRGRIDRTRLGVMGHSMGGGGSLEAAKSRTSLKAAIPLTGWNLDTTWPEVRTPTLVVGADGDTVAPVAAHSEPFYASLPGTLDKAYLELKGAVHRTPITANTTIAKYSVSWLKRFIDNDTRYERFLCPLPAPGPTIAEYRGNCPHT [TEP118]” the “purified protein yield per well” value was < 25 µg.
In the case of “CADRPPVQDEDPAPTAASLAAPLGPYRTSTATVPRGLTEAFGGGTIYYPSGRPRGDTFGGVIIAPGRNGNQGGMAWYGPLLASRGFVVFAIDTLHLKDRPAARAHELEAAMTYLTVRSPVATLVDADRLAVMGHSFGGGAALETAADRPTLRAAIPLMPYDKGREFSNVRVPTLVVAAQNDKIAPVSRHARRFYRSIPASSGKGYLEIAGTTHSSPKKPNTTLAAYVIAWLKRYVDGDERYERFLCPGPIDDPSVALYRNPCS [TEP060]”, the “purified protein yield per well” value is reported as < 25 µg.
In the case of “GAAGNPYERGPDPTESSIEAPRGHYAVSETSVSALGVTGFGGGTIYYPTSTADGTFGAVAIAPGYTSLQSSIAWLGPRLASQGFVVITIDTRTTLDQPAGRGAQLLAALDYLTRRSSVRNRIDSGRLGVMGHSMGGGGSLEAAKGRPSLQAAIPLTGWNLDKTWPEIRVPTLLVGADGDTIAPVATHSQPFYQSLPSTLDRAYLELNNATHFTPNRPDTTIAKYSVSWLKRFIDNDTRYEQFLCPLPRPSRTIEEYRGNCPHTS [TEP007]”, the “purified protein yield per well” value is reported as < 25 µg.
For “HAPVHQPAVAHHHAPFAVRTTAVPKTAVTTFGGGVIYTPQDTGKAVLGAVVITPGFTDTNADEKEMAELVASQGFVAFAIDTLDTSDLPAQRSTEILAAADYLTGQSAVKSQVSAKDVGLIGYSFGGGGTMEAAQARPSIKAAIGLMPFDFPDANDPNAQYATYPKLTTPTLVITGEKDDVATPKDYGKPAYDSIPAGTPKQYLELKGLGHGAGEHVPVPTIRNAVTAFLKRYLDGNSAYAKFICPAPKVGGPISVSLSSCPKG [TEP026]”, the “purified protein yield per well” value was < 25 µg.
With “QTNPYARGPNPTASSLEASTGPFAYRSFTVSRPSGYGAGTVYYPTNAGGTVGAIAIVPGYTARQSSINWWGPRLASHGFVVITIDTNSTLDQPSSRSRQQMAALQQVASLNSTSSSPIYGKVDTSRMGVMGWSMGGGGSLISARDNPSLKAAAPQAPWNTSSSFSSMTVPTLIFACESDSIAPVNSHASPMYNSMRSNPRQYLEINNGSHSCANSGNSNQALIGKKGVAWMKRYMDNDTRYSTFACQNPNSTRVSDFRVANCS [ESM094]” the “purified protein yield per well” value was < 25 µg.
In the case of “RSAPDAAAPRAASGNPYQRGPDPTVASIEATRGPFATAQLNVAPGNGFNGGVVSYPTDTSLGTWGALAIVPGYSALCADEEAWMGPWLSSFGFVVICVETNTRTDSADARAAELLAALNWLTTQSPVKGQIDPGRLSVLGHSAGGAGAILAAERQPSLKAMIGLAPGFPGNGLSMATDTVPTLVIGGQNDTVVTPSYLSGLYATLPGTTQSGFAQIAGADHVYYTRPNNVEMKLLIPWLKLFVDSDTRYSPFLCPALPDPSAVSIYQPKCPYTPPGGSTPPPSTSSGPPMSPAGGRPVHAVGAGKCLDVPGLSATAGTQTDIRTCDGGAGQLWTRASAGRLTVQTGGSTMCLDAAGRGASPGTKVQIWPCNGGSNQQWNVNANGTITGTQSGLCLDVTGGSTADGALVELWTCNGGSNQQWTSQ [TEP076]”, the “purified protein yield per well” value is reported as < 25 µg.
For “YRPVVAFRVKVRKLERAIGESMASVARMQGRYLRASTLTAVAAATIVGCYLRGPDPTVELVESPVGPFEVETVLVPSTVDGFGGGEIYDPVDEDYSFGGIAVVPGVGIDRSRLEWYGPRLASHGFVVFLIETDSVWDVPDQRGEQLIAALDYMTTQSAVVDVVDPKRLAVMGYSFGGGGVIHATRLKPDLKAAIPLAMWFWDNDQSASTVPHLLISCEIDFENDAHTGAVYESRPASTARAMMEIAGADHQCIKQDGSTEQQ [TEP130]”, the “purified protein yield per well” value was < 25 µg.
With “ADNPYQRGPDPTVASVAATRGTFATAQLTVPAGNGFGGGYVYYPTDTSQGTWGAVAIVPGYSARFADEEAWMGPWLASFGFVVIGVETITRTDGADARATQLLAALDYLVGQSPVRDRVDPARLAVMGHSAGGAGTIIAAERRPSLRAAVGLAPGTPGSLSLATDRVPMMVIGGQTDPTVTPSYLDNLYATVPAATPSDFVQIAGADHLFFTRANNTEMKVLIPWLKIFLDSDTRYTSLLCPSLADPSGISLYRSKCPYVPPGTTSPSPSSPSPSSPGPPVPVAACTATYRTVNAWPGGFQGEVVVTAGGTAITGWTVRWTLGSGQTISQLWNGNLTTSGSAVTVDSAAYNGSVPPAGSVVFGFLATGSPTTPAPVCASP [ESM046]” the “purified protein yield per well” value was < 25 µg.
With “ATASFQRGPAPSAASIRATDGPFAITRTNVARAAVSGFGGGDIYAPDDTSQGTFGAVAIAPGFTATRSSMAWLAPRIASQGFVVFNIDTLTTSDQPATRGRELLAALDFLTAQSTARAKIDKNRLAVMGHSMGGGGTLEAAKSRPALKAAVPLTPWDLTKNFAGVTVPTMIIGAQSDTIAPVRQHSERFFASLPSGADTGYLELAGASHFAPNIPNTTIASTSVAWLKRFVDEDTRFEQFLCPGPATGATVSEYETNCPHQG [DP071]” the “purified protein yield per well” value was < 25 µg.
